# Literature values in publication PMC3350600.
# Target: PP1 (Homo sapiens) (UniProt P62136)
# Sequence of UniProt P62136 (P62136 2-330): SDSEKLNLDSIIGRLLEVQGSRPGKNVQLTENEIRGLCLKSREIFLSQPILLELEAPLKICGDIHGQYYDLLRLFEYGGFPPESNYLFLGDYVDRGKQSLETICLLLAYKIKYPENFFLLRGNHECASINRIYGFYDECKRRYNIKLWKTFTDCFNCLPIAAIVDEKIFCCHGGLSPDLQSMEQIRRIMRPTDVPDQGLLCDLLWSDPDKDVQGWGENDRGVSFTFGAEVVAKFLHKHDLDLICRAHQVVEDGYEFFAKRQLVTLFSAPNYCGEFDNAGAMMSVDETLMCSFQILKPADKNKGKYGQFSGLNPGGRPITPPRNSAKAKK
substance,measurement,value
Spinophilin PP1-binding domain (from UniProt O35274),Kd,8 nM
